Assays:
[1] = target: T1, OsGNAT2 (Oryza sativa, UniProt Q5KQI6); assay: PDH-coupled continuous assay (NADH, […] nm); assay type: biochemical; conditions: upper bound inferred from no gain between 100 and 500 μM Ac-CoA; peptide substrate; pH 8.0; 30 °C
T1 construct: gene SNAT1

[2] = target: Schizosaccharomyces pombe NatA (SpNaa15 full length + SpNaa10 full length heterodimer) (Schizosaccharomyces pombe)
[3] = target: Schizosaccharomyces pombe NatA (SpNaa15 full length + SpNaa10 full length heterodimer) (Schizosaccharomyces pombe); remark: listed apart in the source
[4] = substrate: CC(=O)SCCNC(=O)CCNC(=O)[C@H](O)C(C)(C)COP(=O)(O)OP(=O)(O)OC[C@H]1O[C@@H](n2cnc3c(N)ncnc32)[C@H](O)[C@@H]1OP(=O)(O)O; assay: purified protein; conditions: extrapolated to saturating reference peptide …, 12.5-500 μM Ac-CoA, pH 8.0, 30 °C

T1 sequence (Q5KQI6 89-254): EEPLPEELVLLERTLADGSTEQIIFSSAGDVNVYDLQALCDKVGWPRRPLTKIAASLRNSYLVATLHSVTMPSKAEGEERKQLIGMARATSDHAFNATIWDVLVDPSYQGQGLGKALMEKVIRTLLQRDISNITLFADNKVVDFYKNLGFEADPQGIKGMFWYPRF

Row | Molecule | Km of the peptide substrate, PDH-coupled acetylation assay, 100 μM Ac-CoA, 30°C [2] [mM] | Km of the peptide substrate, PDH-coupled acetylation assay, 100 μM Ac-CoA, 30°C (value as told in the text) [3] [mM] | other results
1 | CC(=O)SCCNC(=O)CCNC(=O)[C@H](O)C(C)(C)COP(=O)(O)OP(=O)(O)OC[C@H]1O[C@@H](n2cnc3c(N)ncnc32)[C@H](O)[C@@H]1OP(=O)(O)O [Ac-CoA] |  |  | Km [1]: < 0.03 mM
2 | SASEAGVRWGRPVGRRRRP [reference peptide … (canonical NatA substrate)] | 1 |  | 
3 | SASEAGVAEQVKKLSVNDS [natural 19-amino acid N-terminal sequence of yeast Ths1p, …] | 2.3 |  | 
4 | SASEAGV [peptide SASEAGV] | 25.5 | 19 | 
5 | SASEAGVR [peptide SASEAGVR] | 14.8 | 12 | 
6 | SpNatA (Schizosaccharomyces pombe 972h-) (protein) MDIRPARISDLTGMQNCNLHNLPENYQLKYYLYHAISWPMLSYVATDPKGRVVGYVLAKMEEEPKDGIPHGHITSVSVMRSYRHLGLAKRLMVQSQRAMVEVYGAKYMSLHVRKSNRAAIHLYRDTLQFDVQGIESKYYADGEDAYAMHKDFSTLKFDTPETNDELAKTVQSLALNN |  |  | Km [4]: 0.020 ± 0.003 mM; kcat [4]: 10 s⁻¹; kcat/Km [4]: 508000 ± 89900 M⁻¹ s⁻¹

From publication PMC8902505, “A Continuous Assay Set to Screen and Characterize Novel Protein N-Acetyltransferases Unveils Rice General Control Non-repressible 5-Related N-Acetyltransferase2 Activity” (Frontiers in Plant Science, 2022)
